The record followed here is paper PMC7049685, “The C-terminal tail of the yeast mitochondrial transcription factor Mtf1 coordinates template strand alignment, DNA scrunching and timely transition into elongation” (Nucleic Acids Research, 2020).

The term Kd denotes the concentration at which binding is half-saturated. Broadly, the Km is the concentration of substrate that gives half-maximal velocity. The term kcat denotes the maximal rate divided by the concentration of active sites.

Series [1] concerns the target T1, Rpo41-Mtf1 (yeast mitochondrial RNA polymerase with initiation factor Mtf1) on promoter DNA (Saccharomyces cerevisiae, UniProt P13433).
T1 construct: assembled on 15S or 21S rRNA promoter DNA; with Mitochondrial transcription factor 1
T1 sequence (P13433 1-1351): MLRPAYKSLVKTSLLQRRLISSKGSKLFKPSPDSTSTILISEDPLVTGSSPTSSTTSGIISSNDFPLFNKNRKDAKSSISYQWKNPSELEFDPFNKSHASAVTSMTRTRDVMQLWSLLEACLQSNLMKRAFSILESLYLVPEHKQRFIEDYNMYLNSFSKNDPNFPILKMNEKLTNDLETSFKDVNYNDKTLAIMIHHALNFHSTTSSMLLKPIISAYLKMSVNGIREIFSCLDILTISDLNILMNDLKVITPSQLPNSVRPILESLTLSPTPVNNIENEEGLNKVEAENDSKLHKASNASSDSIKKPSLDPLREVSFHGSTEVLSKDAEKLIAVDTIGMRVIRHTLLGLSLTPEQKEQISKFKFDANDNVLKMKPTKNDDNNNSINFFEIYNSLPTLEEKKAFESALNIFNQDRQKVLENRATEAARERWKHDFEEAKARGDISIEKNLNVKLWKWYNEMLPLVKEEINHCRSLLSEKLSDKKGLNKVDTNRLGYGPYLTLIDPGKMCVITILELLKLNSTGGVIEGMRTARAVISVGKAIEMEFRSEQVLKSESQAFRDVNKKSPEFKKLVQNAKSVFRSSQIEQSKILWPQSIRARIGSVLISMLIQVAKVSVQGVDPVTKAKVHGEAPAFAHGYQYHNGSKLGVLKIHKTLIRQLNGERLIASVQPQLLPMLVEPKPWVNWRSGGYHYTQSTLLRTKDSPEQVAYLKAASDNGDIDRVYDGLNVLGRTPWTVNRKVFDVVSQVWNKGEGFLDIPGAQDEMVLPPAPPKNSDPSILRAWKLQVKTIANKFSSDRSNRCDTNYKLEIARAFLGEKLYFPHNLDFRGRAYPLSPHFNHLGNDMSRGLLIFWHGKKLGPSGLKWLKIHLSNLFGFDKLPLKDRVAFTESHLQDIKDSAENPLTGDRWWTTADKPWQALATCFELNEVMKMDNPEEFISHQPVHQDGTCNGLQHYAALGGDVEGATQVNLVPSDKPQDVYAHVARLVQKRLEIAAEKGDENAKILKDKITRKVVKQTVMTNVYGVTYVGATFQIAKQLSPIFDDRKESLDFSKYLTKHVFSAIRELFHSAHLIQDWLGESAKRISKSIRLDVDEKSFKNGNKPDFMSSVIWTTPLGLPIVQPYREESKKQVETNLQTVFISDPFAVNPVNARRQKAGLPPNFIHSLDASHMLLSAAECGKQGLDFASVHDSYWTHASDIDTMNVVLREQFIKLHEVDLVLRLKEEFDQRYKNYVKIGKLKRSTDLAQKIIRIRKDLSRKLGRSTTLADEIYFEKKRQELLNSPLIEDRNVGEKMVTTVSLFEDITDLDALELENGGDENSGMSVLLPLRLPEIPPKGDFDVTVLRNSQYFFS
T1 sequence (P14908 2-341 partner): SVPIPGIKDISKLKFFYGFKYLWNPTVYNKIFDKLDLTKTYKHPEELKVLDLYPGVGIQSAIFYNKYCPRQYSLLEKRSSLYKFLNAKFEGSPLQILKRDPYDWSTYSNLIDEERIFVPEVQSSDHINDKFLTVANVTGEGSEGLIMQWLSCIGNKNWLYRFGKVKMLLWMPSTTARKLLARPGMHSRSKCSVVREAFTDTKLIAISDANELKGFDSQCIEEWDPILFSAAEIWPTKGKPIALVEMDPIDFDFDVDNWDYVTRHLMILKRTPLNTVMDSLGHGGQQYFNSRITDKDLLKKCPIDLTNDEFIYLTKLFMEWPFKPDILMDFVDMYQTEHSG
Put plainly: 2-aminopurine fluorescence titration, hyperbolic fit. In kind it is binding. Particulars: composite Kd of +1 and +2 initiating ATP; 15S rRNA AA promoter with 2AP at -1 (200 nM), 400 nM Rpo41 and Mtf1-Δ20, 10 mM Mg acetate, pH 7.5, 25 °C.

Series [2] concerns the target T1, Rpo41-Mtf1 (yeast mitochondrial RNA polymerase with initiation factor Mtf1) on promoter DNA. Kind of series: radiometric gel assay of 2-mer RNA synthesis, Michaelis-Menten fit. In kind it is biochemical. Conditions: 21S rRNA AA promoter, [γ-32P]ATP, 1 μM Rpo41, 2 μM Mtf1-Δ20, 10 mM Mg acetate, pH 7.5, 25 °C.
For series [3] the target is unchanged. Kind of series: 2-aminopurine fluorescence titration, hyperbolic fit. The class given is binding.
The next series addresses Rpo41;Mtf1-Δ16 (Saccharomyces cerevisiae;Saccharomyces …, UniProt P13433;P14908 28-1351;1-325, |). Put plainly: fluorescence anisotropy; 10 mM Mg acetate; Kd in Figure S2C table not in the material; 50 mM Tris-acetate pH 7.5, 100 mM potassium glutamate, 10 mM magnesium acetate, 0.01% Tween-20, 25 °C; 5 nM TAMRA-DNA. Particulars: protein: recombinant;recombinant; tags: ;; copies: 1;1; label: TAMRA at 5' end of template strand (strand 2); blunt. On the technique in general: Polarisation of emitted light reports the rotation of a fluorescent probe.

The target of a further series is Rpo41;Mtf1-Δ20 (Saccharomyces cerevisiae;Saccharomyces …, UniProt P13433;P14908 28-1351;1-321, |). Put plainly: fluorescence anisotropy; 10 mM Mg acetate; 50 mM Tris-acetate pH 7.5, 100 mM potassium glutamate, 10 mM magnesium acetate, 0.01% Tween-20, 25 °C; 5 nM TAMRA-DNA. Particulars: protein: recombinant;recombinant; tags: ;; copies: 1;1; label: TAMRA at 5' end of template strand (strand 2); blunt.
Rpo41;Mtf1-Δ20, sequence (P14908 1-321, stated change not applied, chain 2 of 2, one chain of several): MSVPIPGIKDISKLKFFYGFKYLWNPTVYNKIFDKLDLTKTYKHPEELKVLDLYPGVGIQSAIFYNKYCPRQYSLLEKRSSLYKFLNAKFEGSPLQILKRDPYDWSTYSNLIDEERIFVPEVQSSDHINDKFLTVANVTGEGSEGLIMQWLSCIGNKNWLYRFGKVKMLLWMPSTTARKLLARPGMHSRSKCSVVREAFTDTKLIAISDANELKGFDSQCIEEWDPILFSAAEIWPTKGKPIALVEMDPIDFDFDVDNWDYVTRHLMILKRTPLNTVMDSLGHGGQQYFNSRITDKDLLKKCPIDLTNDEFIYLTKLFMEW

Series [4] has as its target T2, Rpo41;Mtf1-WT (Saccharomyces cerevisiae;Saccharomyces …, UniProt P13433;P14908 28-1351;1-341, |). The description is as above. Conditions: protein: recombinant;recombinant; tags: ;; copies: 1;1; label: TAMRA at 5' end of template strand (strand 2); blunt.
Substrate in series [5]: Nc1ncnc2c1ncn2[C@@H]1O[C@H](COP(=O)(O)OP(=O)(O)OP(=O)(O)O)[C@@H](O)[C@H]1O
Kind of series: radiometric gel assay of 2-mer RNA synthesis, Michaelis-Menten fit. Particulars: 21S rRNA AA promoter, [γ-32P]ATP, 1 μM Rpo41, 2 μM Mtf1, 10 mM Mg acetate, pH 7.5, 25 °C. In kind it is biochemical, Saccharomyces cerevisiae.

In series [6] the target is T2, Rpo41;Mtf1-WT. Kind of series: single-molecule FRET; no initiating nucleotides; EFRET 0.14 to 0.38; 50 mM Tris-acetate pH 7.5, 100 mM potassium glutamate, 10 mM magnesium acetate, 0.01% Tween-20, 25 °C; 5 nM TAMRA-DNA. Conditions: protein: recombinant;recombinant; tags: ;; copies: 1;1; label: FRET donor and acceptor (Cy3, Cy5).

Like-named read-outs stand apart in the source and are kept apart here.

Rpo41;Mtf1-Δ16, sequence (P14908 1-325, stated change not applied, one chain of several): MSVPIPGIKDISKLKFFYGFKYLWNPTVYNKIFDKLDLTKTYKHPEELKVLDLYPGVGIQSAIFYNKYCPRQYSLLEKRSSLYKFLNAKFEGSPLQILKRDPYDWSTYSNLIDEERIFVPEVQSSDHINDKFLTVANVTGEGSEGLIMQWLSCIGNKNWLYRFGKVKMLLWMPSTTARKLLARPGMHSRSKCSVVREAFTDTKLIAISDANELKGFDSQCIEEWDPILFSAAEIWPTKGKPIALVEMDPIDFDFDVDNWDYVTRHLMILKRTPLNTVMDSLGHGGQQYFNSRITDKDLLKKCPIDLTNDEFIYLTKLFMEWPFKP

Turning to `Nc1ncnc2c1ncn2[C@@H]1O[C@H](COP(=O)(O)OP(=O)(O)OP(=O)(O)O)[C@@H](O)[C@H]1O` [ATP], the Kd in series [1] was determined as 500 µM; in series [3] it was 65 µM. Also, in series [2], the Km was found to be 364 µM.

B1: 15S rRNA AA promoter -12 to +8 (dsDNA)
DNA 1: TATTATATAAGTAATAAATA
DNA 2: TATTTATTACTTATATAATA
For the molecule B1, the binding signal with Rpo41;Mtf1-Δ16 was about 7 fold weaker than Mtf1-WT. The Kd with Rpo41;Mtf1-Δ20 came out at 0.00081 ± 0.0001 µM; in the series with Rpo41;Mtf1-WT [4], 0.00012 ± 5e-05 µM.

B2: Rpo41-Mtf1 (yeast mitochondrial RNA polymerase with initiation factor Mtf1) on promoter DNA (Saccharomyces cerevisiae S288C) (protein)
chain: MLRPAYKSLVKTSLLQRRLISSKGSKLFKPSPDSTSTILISEDPLVTGSSPTSSTTSGIISSNDFPLFNKNRKDAKSSISYQWKNPSELEFDPFNKSHASAVTSMTRTRDVMQLWSLLEACLQSNLMKRAFSILESLYLVPEHKQRFIEDYNMYLNSFSKNDPNFPILKMNEKLTNDLETSFKDVNYNDKTLAIMIHHALNFHSTTSSMLLKPIISAYLKMSVNGIREIFSCLDILTISDLNILMNDLKVITPSQLPNSVRPILESLTLSPTPVNNIENEEGLNKVEAENDSKLHKASNASSDSIKKPSLDPLREVSFHGSTEVLSKDAEKLIAVDTIGMRVIRHTLLGLSLTPEQKEQISKFKFDANDNVLKMKPTKNDDNNNSINFFEIYNSLPTLEEKKAFESALNIFNQDRQKVLENRATEAARERWKHDFEEAKARGDISIEKNLNVKLWKWYNEMLPLVKEEINHCRSLLSEKLSDKKGLNKVDTNRLGYGPYLTLIDPGKMCVITILELLKLNSTGGVIEGMRTARAVISVGKAIEMEFRSEQVLKSESQAFRDVNKKSPEFKKLVQNAKSVFRSSQIEQSKILWPQSIRARIGSVLISMLIQVAKVSVQGVDPVTKAKVHGEAPAFAHGYQYHNGSKLGVLKIHKTLIRQLNGERLIASVQPQLLPMLVEPKPWVNWRSGGYHYTQSTLLRTKDSPEQVAYLKAASDNGDIDRVYDGLNVLGRTPWTVNRKVFDVVSQVWNKGEGFLDIPGAQDEMVLPPAPPKNSDPSILRAWKLQVKTIANKFSSDRSNRCDTNYKLEIARAFLGEKLYFPHNLDFRGRAYPLSPHFNHLGNDMSRGLLIFWHGKKLGPSGLKWLKIHLSNLFGFDKLPLKDRVAFTESHLQDIKDSAENPLTGDRWWTTADKPWQALATCFELNEVMKMDNPEEFISHQPVHQDGTCNGLQHYAALGGDVEGATQVNLVPSDKPQDVYAHVARLVQKRLEIAAEKGDENAKILKDKITRKVVKQTVMTNVYGVTYVGATFQIAKQLSPIFDDRKESLDFSKYLTKHVFSAIRELFHSAHLIQDWLGESAKRISKSIRLDVDEKSFKNGNKPDFMSSVIWTTPLGLPIVQPYREESKKQVETNLQTVFISDPFAVNPVNARRQKAGLPPNFIHSLDASHMLLSAAECGKQGLDFASVHDSYWTHASDIDTMNVVLREQFIKLHEVDLVLRLKEEFDQRYKNYVKIGKLKRSTDLAQKIIRIRKDLSRKLGRSTTLADEIYFEKKRQELLNSPLIEDRNVGEKMVTTVSLFEDITDLDALELENGGDENSGMSVLLPLRLPEIPPKGDFDVTVLRNSQYFFS
notes: assembled on 15S or 21S rRNA promoter DNA; with Mitochondrial transcription factor 1
For B2, in series [5], the Michaelis-Menten constant (Km) is 165 µM and the kcat amounted to 0.4 s⁻¹.

B3: smFRET promoter DNA template (position 0) (dsDNA)
DNA 1: TGGCCACGGCAGCGAGGCTATTATATATATAAGTAGTAACAAGTAGAATA
DNA 2: TATTCTACTTGTTACTACTTATATATATAATAGCCTCGCTGCCGTGGCCA
Regarding B3, in the series with Rpo41;Mtf1-WT [6], the binding result is on record as “binds”.
